Experimental data from PMC9433092, “Closely related type II-C Cas9 orthologs recognize diverse PAMs”.
Changes are numbered by the printed parent chain.

T1: Nsp2Cas9 (Neisseria sp. WF04, UniProt A0A4Y9GBC9)
T1 sequence: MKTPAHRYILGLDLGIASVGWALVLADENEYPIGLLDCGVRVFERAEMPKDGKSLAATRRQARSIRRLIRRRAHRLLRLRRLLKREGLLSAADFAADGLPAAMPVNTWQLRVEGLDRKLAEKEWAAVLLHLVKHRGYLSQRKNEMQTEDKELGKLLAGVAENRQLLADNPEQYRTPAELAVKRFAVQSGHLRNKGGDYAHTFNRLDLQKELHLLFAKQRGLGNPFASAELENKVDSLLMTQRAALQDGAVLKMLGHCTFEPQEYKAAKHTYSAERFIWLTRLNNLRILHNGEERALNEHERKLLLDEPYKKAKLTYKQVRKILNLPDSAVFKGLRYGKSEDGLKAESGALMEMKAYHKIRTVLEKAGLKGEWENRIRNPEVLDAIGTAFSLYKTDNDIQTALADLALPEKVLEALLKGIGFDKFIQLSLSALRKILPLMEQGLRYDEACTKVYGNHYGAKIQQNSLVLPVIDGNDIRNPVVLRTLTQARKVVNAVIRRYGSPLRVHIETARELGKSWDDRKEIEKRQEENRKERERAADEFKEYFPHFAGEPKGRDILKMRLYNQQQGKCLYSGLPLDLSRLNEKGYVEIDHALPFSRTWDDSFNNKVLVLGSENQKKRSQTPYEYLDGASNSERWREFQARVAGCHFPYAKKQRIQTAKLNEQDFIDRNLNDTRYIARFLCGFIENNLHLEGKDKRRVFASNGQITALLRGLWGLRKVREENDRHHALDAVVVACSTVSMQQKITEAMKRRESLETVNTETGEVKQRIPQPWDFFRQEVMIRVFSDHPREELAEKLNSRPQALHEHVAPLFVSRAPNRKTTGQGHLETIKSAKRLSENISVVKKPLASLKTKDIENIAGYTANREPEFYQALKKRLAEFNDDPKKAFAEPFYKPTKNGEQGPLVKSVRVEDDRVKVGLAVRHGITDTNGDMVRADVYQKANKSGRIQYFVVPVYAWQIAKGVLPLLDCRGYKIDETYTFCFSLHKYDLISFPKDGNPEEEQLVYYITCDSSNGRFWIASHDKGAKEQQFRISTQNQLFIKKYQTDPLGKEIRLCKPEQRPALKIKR

B1: AAVS1 A2 (mixed)
RNA: GUCAGCAUAGGGUGGCAAAGCCCGUUGUAGCUCCCUUUCUCAUUUCGGAAACGAAAUGAGAACCGUUGCUACAAUAAGGCCGUCUGAAAAGAUGUGCCGCAACGCUCUGCCCCUUAAAGCUUCUGCUUUAAGGGGCAUCGUUUAUUUUUUU
DNA 1: TCAGCATAGGGTGGCAAAGCCCAGGGCC
DNA 2: GGCCCTGGGCTTTGCCACCCTATGCTGA
B2: AAVS1 A3 (mixed)
RNA: GCAGCGCAAAGUGACAAUGGCCGUUGUAGCUCCCUUUCUCAUUUCGGAAACGAAAUGAGAACCGUUGCUACAAUAAGGCCGUCUGAAAAGAUGUGCCGCAACGCUCUGCCCCUUAAAGCUUCUGCUUUAAGGGGCAUCGUUUAUUUUUUU
DNA 1: GCAGCGCAAAGTGACAATGGCCAGGGCC
DNA 2: GGCCCTGGCCATTGTCACTTTGCGCTGC
B3: AAVS1 A4 (mixed)
RNA: GCUCUGACCUGCAUUCUCUCCCCGUUGUAGCUCCCUUUCUCAUUUCGGAAACGAAAUGAGAACCGUUGCUACAAUAAGGCCGUCUGAAAAGAUGUGCCGCAACGCUCUGCCCCUUAAAGCUUCUGCUUUAAGGGGCAUCGUUUAUUUUUUU
DNA 1: CTCTGACCTGCATTCTCTCCCCTGGGCC
DNA 2: GGCCCAGGGGAGAGAATGCAGGTCAGAG
B4: AAVS1 A7 (mixed)
RNA: GUCUGUCCCCUCCACCCCACAGUGUUGUAGCUCCCUUUCUCAUUUCGGAAACGAAAUGAGAACCGUUGCUACAAUAAGGCCGUCUGAAAAGAUGUGCCGCAACGCUCUGCCCCUUAAAGCUUCUGCUUUAAGGGGCAUCGUUUAUUUUUUU
DNA 1: TCTGTCCCCTCCACCCCACAGTGGGGCC
DNA 2: GGCCCCACTGTGGGGTGGAGGGGACAGA
B5: AAVS1 A10 (mixed)
RNA: GGGUCUGAGGGUGGAGGGACUGGUUGUAGCUCCCUUUCUCAUUUCGGAAACGAAAUGAGAACCGUUGCUACAAUAAGGCCGUCUGAAAAGAUGUGCCGCAACGCUCUGCCCCUUAAAGCUUCUGCUUUAAGGGGCAUCGUUUAUUUUUUU
DNA 1: GGGTCTGAGGGTGGAGGGACTGGGGGCC
DNA 2: GGCCCCCAGTCCCTCCACCCTCAGACCC
B6: AAVS1 A30 (mixed)
RNA: GAGGGAGGAGAGAUGCCCGGAGAGUUGUAGCUCCCUUUCUCAUUUCGGAAACGAAAUGAGAACCGUUGCUACAAUAAGGCCGUCUGAAAAGAUGUGCCGCAACGCUCUGCCCCUUAAAGCUUCUGCUUUAAGGGGCAUCGUUUAUUUUUUU
DNA 1: AGGGAGGAGAGATGCCCGGAGAGGACCCAG
DNA 2: CTGGGTCCTCTCCGGGCATCTCTCCTCCCT
B7: AAVS1 A33 (mixed)
RNA: GUGAGAAUGGUGCGUCCUAGGUGGUUGUAGCUCCCUUUCUCAUUUCGGAAACGAAAUGAGAACCGUUGCUACAAUAAGGCCGUCUGAAAAGAUGUGCCGCAACGCUCUGCCCCUUAAAGCUUCUGCUUUAAGGGGCAUCGUUUAUUUUUUU
DNA 1: TGAGAATGGTGCGTCCTAGGTGTTCACCAG
DNA 2: CTGGTGAACACCTAGGACGCACCATTCTCA
B8: AAVS1 A41 (mixed)
RNA: GAGGACUGCAUGGGUCAGCACAGGUUGUAGCUCCCUUUCUCAUUUCGGAAACGAAAUGAGAACCGUUGCUACAAUAAGGCCGUCUGAAAAGAUGUGCCGCAACGCUCUGCCCCUUAAAGCUUCUGCUUUAAGGGGCAUCGUUUAUUUUUUU
DNA 1: AGGACTGCATGGGTCAGCACAGGCTGCCAA
DNA 2: TTGGCAGCCTGTGCTGACCCATGCAGTCCT
B9: AAVS1 A46 (mixed)
RNA: GAAGCCUGAGCGCCUCUCCUGGGGUUGUAGCUCCCUUUCUCAUUUCGGAAACGAAAUGAGAACCGUUGCUACAAUAAGGCCGUCUGAAAAGAUGUGCCGCAACGCUCUGCCCCUUAAAGCUUCUGCUUUAAGGGGCAUCGUUUAUUUUUUU
DNA 1: AAGCCTGAGCGCCTCTCCTGGGCTTGCCAA
DNA 2: TTGGCAAGCCCAGGAGAGGCGCTCAGGCTT
B10: AAVS1 A59 (mixed)
RNA: GCUGGGACUUGGCCAGACACUGGUUGUAGCUCCCUUUCUCAUUUCGGAAACGAAAUGAGAACCGUUGCUACAAUAAGGCCGUCUGAAAAGAUGUGCCGCAACGCUCUGCCCCUUAAAGCUUCUGCUUUAAGGGGCAUCGUUUAUUUUUUU
DNA 1: GCTGGGACTTGGCCAGACACTGAGGTCCAG
DNA 2: CTGGACCTCAGTGTCTGGCCAAGTCCCAGC
B11: VEGFA V17 (mixed)
RNA: B4 RNA with U2C, U4G, U6G, C7A, C16U, A19U, A21C, G22U, U23G
DNA 1: CCGGGACCCTCCACTCCTCCTGGGCCCCAA
DNA 2: TTGGGGCCCAGGAGGAGTGGAGGGTCCCGG
B12: VEGFA V18 (mixed)
RNA: GAGGGGGGUGCCGAGGACCGAAGGUUGUAGCUCCCUUUCUCAUUUCGGAAACGAAAUGAGAACCGUUGCUACAAUAAGGCCGUCUGAAAAGAUGUGCCGCAACGCUCUGCCCCUUAAAGCUUCUGCUUUAAGGGGCAUCGUUUAUUUUUUU
DNA 1: AGGGGGGTGCCGAGGACCGAAGGGCACCAA
DNA 2: TTGGTGCCCTTCGGTCCTCGGCACCCCCCT
B13: VEGFA V21 (mixed)
RNA: GUCUCGAGGUAGCCCCAGCCCGGGUUGUAGCUCCCUUUCUCAUUUCGGAAACGAAAUGAGAACCGUUGCUACAAUAAGGCCGUCUGAAAAGAUGUGCCGCAACGCUCUGCCCCUUAAAGCUUCUGCUUUAAGGGGCAUCGUUUAUUUUUUU
DNA 1: TCTCGAGGTAGCCCCAGCCCGGGGATCCAG
DNA 2: CTGGATCCCCGGGCTGGGGCTACCTCGAGA
B14: VEGFA V36 (mixed)
RNA: GAGGAAACGACCUGGGACCACCUGUUGUAGCUCCCUUUCUCAUUUCGGAAACGAAAUGAGAACCGUUGCUACAAUAAGGCCGUCUGAAAAGAUGUGCCGCAACGCUCUGCCCCUUAAAGCUUCUGCUUUAAGGGGCAUCGUUUAUUUUUUU
DNA 1: AGGAAACGACCTGGGACCACCTGTTCCCAA
DNA 2: TTGGGAACAGGTGGTCCCAGGTCGTTTCCT
B15: VEGFA V54 (mixed)
RNA: GCUGUCCCCUCCUGAGCCCAUGGGUUGUAGCUCCCUUUCUCAUUUCGGAAACGAAAUGAGAACCGUUGCUACAAUAAGGCCGUCUGAAAAGAUGUGCCGCAACGCUCUGCCCCUUAAAGCUUCUGCUUUAAGGGGCAUCGUUUAUUUUUUU
DNA 1: CTGTCCCCTCCTGAGCCCATGGGCAACCAT
DNA 2: ATGGTTGCCCATGGGCTCAGGAGGGGACAG
B16: VEGFA V60 (mixed)
RNA: B12 RNA with G3A, G7U, U9A, C11U, G13U, A14C, G15A, A17G, G20A, A21C
DNA 1: AAGGGTGAGTCTCAGGCCACAGGGACCCAA
DNA 2: TTGGGTCCCTGTGGCCTGAGACTCACCCTT
B17: EMX1 E1 (mixed)
RNA: GAAUGUGGUGCUUGAGAAGUGGAGUUGUAGCUCCCUUUCUCAUUUCGGAAACGAAAUGAGAACCGUUGCUACAAUAAGGCCGUCUGAAAAGAUGUGCCGCAACGCUCUGCCCCUUAAAGCUUCUGCUUUAAGGGGCAUCGUUUAUUUUUUU
DNA 1: AATGTGGTGCTTGAGAAGTGGATGGCCCAA
DNA 2: TTGGGCCATCCACTTCTCAAGCACCACATT
B18: GRIN2B G1 (mixed)
RNA: GCCCAUCAAGCUGGGCUCCAAGGGUUGUAGCUCCCUUUCUCAUUUCGGAAACGAAAUGAGAACCGUUGCUACAAUAAGGCCGUCUGAAAAGAUGUGCCGCAACGCUCUGCCCCUUAAAGCUUCUGCUUUAAGGGGCAUCGUUUAUUUUUUU
DNA 1: CCCATCAAGCTGGGCTCCAAGGAGGGCCAA
DNA 2: TTGGCCCTCCTTGGAGCCCAGCTTGATGGG
B19: GRIN2B G5 (mixed)
RNA: GUUUACAAUGAGAGACAAUACUGGUUGUAGCUCCCUUUCUCAUUUCGGAAACGAAAUGAGAACCGUUGCUACAAUAAGGCCGUCUGAAAAGAUGUGCCGCAACGCUCUGCCCCUUAAAGCUUCUGCUUUAAGGGGCAUCGUUUAUUUUUUU
DNA 1: TTTACAATGAGAGACAATACTGGCATCCAA
DNA 2: TTGGATGCCAGTATTGTCTCTCATTGTAAA

What follows are binders tested against T1, Nsp2Cas9 (assay: HEK293T cells). Conditions: tags: NLS and HA tags, kept.
Binder B1 has an indel frequency of 14.1 % indels.
B2 gave an indel frequency of 7.81 % indels.
Binder B3 has an indel frequency of 6.61 % indels.
B4 was tested, and the indel frequency was 17.4 % indels.
For B5, the indel frequency was 30.1 % indels.
Work on B6 yielded an indel frequency of 12.9 % indels.
For B7, the indel frequency was 17.1 % indels.
B8 showed an indel frequency of 10.8 % indels.
B9 gave an indel frequency of 14.9 % indels.
B10 showed an indel frequency of 16.7 % indels.
With B11 the indel frequency was 11.6 % indels.
Binder B12 has an indel frequency of 16.7 % indels.
For B13, the indel frequency was 19 % indels.
Binder B14 has an indel frequency of 14.6 % indels.
Work on B15 yielded an indel frequency of 37 % indels.
Binder B16 has an indel frequency of 12.1 % indels.
B17 was tested, and the indel frequency was 7.8 % indels.
With B18 the indel frequency was 18.6 % indels.
B19 was tested, and the indel frequency was 18.4 % indels.
